Experimental data taken from US20110190270A1, “METHODS OF TREATING THROMBOEMBOLIC DISORDERS” (MONASH UNIVERSITY, priority 2008, published 2011).

Tested on: occlusive blood clot in the carotid artery
Experiment: carotid artery occlusion model, clot lysis and vascular reperfusion
Assay type: in vivo, mice
Conditions: regimens A-H of FIGS. 8 and 9, blood flow monitored 60 minutes
Procedure: Mice were anaesthetised and minor surgery performed to expose to the carotid artery and jugular vein. A Doppler flow probe was placed around the carotid artery to monitor blood flow through this blood vessel, and a catheter placed in the jugular vein to administer drugs. A blood clot was formed in the carotid artery of the mouse through the delivery of a small electric current (4 mA for 1.25 min^g), resulting in complete blockage of blood flow through the vessel (blood flow=0 mls/min), as measured by the flow probe. After vessel blockade was established, various combinations of t-PA, urokinase, heparin, hirudin, HA1077 and Y27632 were administered, using concentrations and regimens indicated (A-H in FIGS. 8 and 9) and examined for their efficacy to dissolve blood clots and restore blood flow. Blood flow was monitored in mice receiving each drug combination for a further 60 minutes, and blood flow measurements recorded using computer software.

B1: t-PA: thrombolytic agent (protein, UniProt P00750 36-562, looked up)
Tissue-type plasminogen …: SYQVICRDEKTQMIYQQHQSWLRPVLRSNRVEYCWCNSGRAQCHSVPVKSCSEPRCFNGGTCQQALYFSDFVCQCPEGFAGKCCEIDTRATCYEDQGISYRGTWSTAESGAECTNWNSSALAQKPYSGRRPDAIRLGLGNHNYCRNPDRDSKPWCYVFKAGKYSSEFCSTPACSEGNSDCYFGNGSAYRGTHSLTESGASCLPWNSMILIGKVYTAQNPSAQALGLGKHNYCRNPDGDAKPWCHVLKNRRLTWEYCDVPSCSTCGLRQYSQPQFRIKGGLFADIASHPWQAAIFAKHRRSPGERFLCGGILISSCWILSAAHCFQERFPPHHLTVILGRTYRVVPGEEEQKFEVEKYIVHKEFDDDTYDNDIALLQLKSDSSRCAQESSVVRTVCLPPADLQLPDWTECELSGYGKHEALSPFYSERLKEAHVRLYPSSRCTSQHLLNRTVTDNMLCAGDTRSGGPQANLHDACQGDSGGPLVCLNDGRMTLVGIISWGLGCGQKDVPGVYTKVTNYLDWIRDNMRP
  clot lysis and re-establishment of blood flow (in words): relatively moderate in its ability to lyse occlusive blood clots
